± gives the uncertainty stated by the source.
B1: Double-stranded RNA-specific adenosine deaminase, residues 296 to 358; numbered along this chain, P55265 (parent)
chain: MAEIKEKICDYLFNVSDSSALNLAKNIGLTKARDINAVLIDMERQGDVYRQGTTPPIWHLTDK

Variants of: B1
Experiment: abundance fitness (aPCA) (normalised: wild type 0, dead -1); higher = more abundant; growth selection in yeast, the domain comes from the species named
Settings: Homo sapiens

| Variant | abundance fitness |
| --- | --- |
| MAEIKEKICDYLFNVSDSSALNLAKNIGLTKARDINAVLIDMERQGDVYRQGTTPPIWHLTDQ [K63Q] | -0.79 ± 0.41 |
| MAEIKEKICDYLFNVSDSSALNLAKNIGLTKARDINAVLIDMERQGDVYRQGTTPPIWHLTDM [K63M] | -0.619 ± 0.28 |
| MAEIKEKICDYLFNVSDSSALKLAKNIGLTKARDINAVLIDMERQGDVYRQGTTPPIWHLTDK [N22K] | -0.424 ± 0.084 |
| MAEIKEKICDYLFNVHDSSALNLAKNIGLTKARDINAVLIDMERQGDVYRQGTTPPIWHLTDK [S16H] | -0.108 ± 0.094 |
| MAEIKEKICDYLFNVWDSSALNLAKNIGLTKARDINAVLIDMERQGDVYRQGTTPPIWHLTDK [S16W] | -0.514 ± 0.086 |
| MAIIKEKICDYLFNVSDSSALNLAKNIGLTKARDINAVLIDMERQGDVYRQGTTPPIWHLTDK [E3I] | -0.457 ± 0.098 |
| MAAIKEKICDYLFNVSDSSALNLAKNIGLTKARDINAVLIDMERQGDVYRQGTTPPIWHLTDK [E3A] | -0.369 ± 0.074 |
| MAEIKEKICDYLFNVSDTSALNLAKNIGLTKARDINAVLIDMERQGDVYRQGTTPPIWHLTDK [S18T] | -0.388 ± 0.065 |
| MAEIKEKICDYLFNVSDQSALNLAKNIGLTKARDINAVLIDMERQGDVYRQGTTPPIWHLTDK [S18Q] | -0.481 ± 0.076 |
| MAEIKEKICDYLFNVSDNSALNLAKNIGLTKARDINAVLIDMERQGDVYRQGTTPPIWHLTDK [S18N] | -0.607 ± 0.096 |
| MAEIKEKICDYLFNVSDPSALNLAKNIGLTKARDINAVLIDMERQGDVYRQGTTPPIWHLTDK [S18P] | -0.83 ± 0.14 |
| MAEIKEKICDYLFNVSDSSALNLAKNIGLTKARDINAVLIDMERRGDVYRQGTTPPIWHLTDK [Q45R] | -0.33 ± 0.055 |
| MAEIKEKICDYLFNVSDSSALNLAKNIGLTKARDINAVLIDMEREGDVYRQGTTPPIWHLTDK [Q45E] | 0.022 ± 0.15 |
| MAEIKEKICDYLFNVSDSSALNLAKNIGLTKARKINAVLIDMERQGDVYRQGTTPPIWHLTDK [D34K] | -0.518 ± 0.079 |
| MAEIKEKICDYLFNVSDSSALNLAKNIGLTKARYINAVLIDMERQGDVYRQGTTPPIWHLTDK [D34Y] | -0.694 ± 0.11 |
| MAEIKEKICDYLFNMSDSSALNLAKNIGLTKARDINAVLIDMERQGDVYRQGTTPPIWHLTDK [V15M] | -0.203 ± 0.078 |
| MAEIKEKICDYLFNVSDSSALNLAKNIGLTKARDINAVLIDMERQGDVYRQATTPPIWHLTDK [G52A] | -0.342 ± 0.055 |
| MAEIKEKICDYLFNVSDSSALNLAKNIGLTKARDINAVLIDMERQGDVYRQCTTPPIWHLTDK [G52C] | -0.525 ± 0.056 |
| MAEIKEKICDYCFNVSDSSALNLAKNIGLTKARDINAVLIDMERQGDVYRQGTTPPIWHLTDK [L12C] | -1.02 ± 0.3 |
| MAEIKEKICDYLFNVSDSSALNLAKNIGLTKARDINAVLIDMERQGDVERQGTTPPIWHLTDK [Y49E] | 0.259 ± 0.057 |
| MAEIKEKICDYLFNVSDSSALNLAKNIGLTKARDINEVLIDMERQGDVYRQGTTPPIWHLTDK [A37E] | -0.024 ± 0.056 |

| Variant | abundance fitness |
| --- | --- |
| MAEIKEKICDYLENVSDSSALNLAKNIGLTKARDINAVLIDMERQGDVYRQGTTPPIWHLTDK [F13E] | 0.383 ± 0.078 |
| MAEIKEKICDYLKNVSDSSALNLAKNIGLTKARDINAVLIDMERQGDVYRQGTTPPIWHLTDK [F13K] | 0.538 ± 0.066 |
| MAEIKEKICDYLFNVSDSSALNLAKNIGLTKARDINAVLIDMERQGMVYRQGTTPPIWHLTDK [D47M] | 0.182 ± 0.054 |
| MAEIKEKICDYLFNVSDSSALNSAKNIGLTKARDINAVLIDMERQGDVYRQGTTPPIWHLTDK [L23S] | -0.424 ± 0.077 |
| MAEIKEKICDYLFNVSDSSALNGAKNIGLTKARDINAVLIDMERQGDVYRQGTTPPIWHLTDK [L23G] | -0.403 ± 0.045 |
| MAEIKEKICDYLFNVSDSSALNLAKNIGLTKARDINAVLIFMERQGDVYRQGTTPPIWHLTDK [D41F] | -1.34 ± 0.31 |
| MAEIKEKICDYLFNVSDSSALNLAKNIGLTKARDINAVLIDMERQGDVYRQGTTPIIWHLTDK [P56I] | -0.263 ± 0.15 |
| MAEIKEKICDYLFNVSDSSALNLAKNIGLTKARDINAVLIDMERQGDVYRQGTTPKIWHLTDK [P56K] | -0.539 ± 0.18 |
| MAEIKEKICDYLFNVSDSSALNLAKNIGLTKARDINAVFIDMERQGDVYRQGTTPPIWHLTDK [L39F] | -0.812 ± 0.09 |
| MAEIKQKICDYLFNVSDSSALNLAKNIGLTKARDINAVLIDMERQGDVYRQGTTPPIWHLTDK [E6Q] | -0.03 ± 0.087 |
| MAEIKEKICDYLFNVSDSSALNLAKNIGLTKARDINAVLIDMERQEDVYRQGTTPPIWHLTDK [G46E] | -0.66 ± 0.087 |
| MAEIKEKICDYLFNVSDSSALNLAKNIGLTKARDINAVLIDMERQADVYRQGTTPPIWHLTDK [G46A] | -0.844 ± 0.087 |
| MAEIKEKICDDLFNVSDSSALNLAKNIGLTKARDINAVLIDMERQGDVYRQGTTPPIWHLTDK [Y11D] | -0.488 ± 0.087 |
| MAEIKEKNCDYLFNVSDSSALNLAKNIGLTKARDINAVLIDMERQGDVYRQGTTPPIWHLTDK [I8N] | -0.543 ± 0.4 |
| MAEIKEKICDYLFNVSDSSALNLAENIGLTKARDINAVLIDMERQGDVYRQGTTPPIWHLTDK [K25E] | -0.124 ± 0.083 |
| MAEIKEKICDYLFNVSDSSALNLAINIGLTKARDINAVLIDMERQGDVYRQGTTPPIWHLTDK [K25I] | -0.578 ± 0.11 |
| MAEIMEKICDYLFNVSDSSALNLAKNIGLTKARDINAVLIDMERQGDVYRQGTTPPIWHLTDK [K5M] | -0.574 ± 0.082 |
| MAEIEEKICDYLFNVSDSSALNLAKNIGLTKARDINAVLIDMERQGDVYRQGTTPPIWHLTDK [K5E] | -0.666 ± 0.22 |
| MAEIKEKICDYLFNVSDSSALNLAKNIGLIKARDINAVLIDMERQGDVYRQGTTPPIWHLTDK [T30I] | -0.299 ± 0.084 |
| MAEIKEKICDYLFNVSDSSALNLAKHIGLTKARDINAVLIDMERQGDVYRQGTTPPIWHLTDK [N26H] | 0.215 ± 0.057 |
| MAEIKEKICDYLFNVSDSSALNLAKNIYLTKARDINAVLIDMERQGDVYRQGTTPPIWHLTDK [G28Y] | -0.982 ± 0.13 |
